In assay [1] the target is human adrenomedullin-receptor (human, UniProt Q16602 23-461). In words: cell-based or functional assay.
For assay [2], the target named is CLR fused to EYFP with RAMP2 fused to ECFP. The assay is described as follows: cell-based or functional assay.

Nine molecules from patent US20180022780A1 (Bayer, published 2018) can be followed below.

Bridge positions count the residues as written; N and C are the ends. Square brackets hold non-standard residues; d marks the D form. Ends that are not written are not given here. * marks the point of attachment. Palmitoyl = CCCCCCCCCCCCCCCC(=O)*; Orn = NCCC[C@H](N)C(=O)O; Dap = NC[C@H](N)C(=O)O Some results are limits rather than exact numbers.

CLR fused to EYFP with RAMP2 fused to ECFP, sequence (Q16602 whole entry, chain 1 of 2, the tested form may be a part): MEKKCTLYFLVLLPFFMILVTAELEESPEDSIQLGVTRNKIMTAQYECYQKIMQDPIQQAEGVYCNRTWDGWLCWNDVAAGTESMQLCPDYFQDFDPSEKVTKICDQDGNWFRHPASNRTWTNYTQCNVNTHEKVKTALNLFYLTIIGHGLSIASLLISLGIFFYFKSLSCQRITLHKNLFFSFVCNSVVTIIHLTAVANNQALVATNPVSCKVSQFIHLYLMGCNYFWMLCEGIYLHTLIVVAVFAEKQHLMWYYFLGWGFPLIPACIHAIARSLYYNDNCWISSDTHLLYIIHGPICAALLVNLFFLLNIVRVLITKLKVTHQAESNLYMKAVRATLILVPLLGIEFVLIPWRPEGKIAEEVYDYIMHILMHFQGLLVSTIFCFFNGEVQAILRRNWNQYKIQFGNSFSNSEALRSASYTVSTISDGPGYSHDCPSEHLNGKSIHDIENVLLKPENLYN
CLR fused to EYFP with RAMP2 fused to ECFP, sequence (O60895 whole entry, chain 2 of 2, further chain, the tested form may be a part): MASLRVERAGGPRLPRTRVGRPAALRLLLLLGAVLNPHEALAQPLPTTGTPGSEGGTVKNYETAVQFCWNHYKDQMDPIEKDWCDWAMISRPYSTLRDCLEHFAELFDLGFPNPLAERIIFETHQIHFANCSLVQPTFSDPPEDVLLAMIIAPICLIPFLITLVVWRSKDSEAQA
human adrenomedullin-receptor, sequence (Q16602 23-461): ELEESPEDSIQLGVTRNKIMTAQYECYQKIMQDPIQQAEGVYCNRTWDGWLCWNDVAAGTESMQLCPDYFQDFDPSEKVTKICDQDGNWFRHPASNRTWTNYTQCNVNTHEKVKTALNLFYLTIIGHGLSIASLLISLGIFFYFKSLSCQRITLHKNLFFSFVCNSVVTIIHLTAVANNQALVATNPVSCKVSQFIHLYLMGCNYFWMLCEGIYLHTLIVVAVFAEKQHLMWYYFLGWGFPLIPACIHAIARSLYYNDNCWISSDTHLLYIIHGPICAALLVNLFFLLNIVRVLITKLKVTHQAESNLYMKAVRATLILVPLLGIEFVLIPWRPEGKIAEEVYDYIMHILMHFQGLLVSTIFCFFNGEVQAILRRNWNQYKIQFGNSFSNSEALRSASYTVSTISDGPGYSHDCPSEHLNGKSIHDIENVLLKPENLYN

B1: [G^14, (K^16, E^21)lac]ADM(14-52) (peptide)
peptide: GGKRFGTETVQKLAHQIYQFTDKDKDNVAPRSKISPQGY-NH2
modifications: lactam 3-8; N-terminus assumed
SMILES: CC[C@H](C)[C@H](NC(=O)[C@H](CCC(N)=O)NC(=O)[C@H](Cc1c[nH]cn1)NC(=O)[C@H](C)NC(=O)[C@H](CC(C)C)NC(=O)[C@H](CCCCN)NC(=O)[C@H](CCC(N)=O)NC(=O)[C@@H](NC(=O)[C@@H](NC(=O)[C@@H]1CCC(=O)NCCCC[C@H](NC(=O)CNC(=O)CN)C(=O)N[C@@H](CCCNC(=N)N)C(=O)N[C@@H](Cc2ccccc2)C(=O)NCC(=O)N[C@@H]([C@@H](C)O)C(=O)N1)[C@@H](C)O)C(C)C)C(=O)N[C@@H](Cc1ccc(O)cc1)C(=O)N[C@@H](CCC(N)=O)C(=O)N[C@@H](Cc1ccccc1)C(=O)N[C@H](C(=O)N[C@@H](CC(=O)O)C(=O)N[C@@H](CCCCN)C(=O)N[C@@H](CC(=O)O)C(=O)N[C@@H](CCCCN)C(=O)N[C@@H](CC(=O)O)C(=O)N[C@@H](CC(N)=O)C(=O)N[C@H](C(=O)N[C@@H](C)C(=O)N1CCC[C@H]1C(=O)N[C@@H](CCCNC(=N)N)C(=O)N[C@@H](CO)C(=O)N[C@@H](CCCCN)C(=O)N[C@H](C(=O)N[C@@H](CO)C(=O)N1CCC[C@H]1C(=O)N[C@@H](CCC(N)=O)C(=O)NCC(=O)N[C@@H](Cc1ccc(O)cc1)C(N)=O)[C@@H](C)CC)C(C)C)[C@@H](C)O
For the molecule B1, in assay [1], the “EC50 [nM], aequorin luminescence of CHO adrenomedullin-receptor reporter cells” value (“EC50 [nM], aequorin luminescence” for short) was greater than 1000 nM. Further, in assay [2], the “EC50 [nM], cAMP assay (CRE-luciferase luminescence, HEK293 cells)” value (shortened to “EC50 [nM], cAMP assay”) is greater than 1000 nM.

B2: [G^14, (Orn^16, E^21)lac]ADM(14-52) (peptide)
peptide: GG[Orn]RFGTETVQKLAHQIYQFTDKDKDNVAPRSKISPQGY-NH2
modifications: lactam 3-8; N-terminus assumed
SMILES: CC[C@H](C)[C@H](NC(=O)[C@H](CCC(N)=O)NC(=O)[C@H](Cc1c[nH]cn1)NC(=O)[C@H](C)NC(=O)[C@H](CC(C)C)NC(=O)[C@H](CCCCN)NC(=O)[C@H](CCC(N)=O)NC(=O)[C@@H](NC(=O)[C@@H](NC(=O)[C@@H]1CCC(=O)NCCC[C@H](NC(=O)CNC(=O)CN)C(=O)N[C@@H](CCCNC(=N)N)C(=O)N[C@@H](Cc2ccccc2)C(=O)NCC(=O)N[C@@H]([C@@H](C)O)C(=O)N1)[C@@H](C)O)C(C)C)C(=O)N[C@@H](Cc1ccc(O)cc1)C(=O)N[C@@H](CCC(N)=O)C(=O)N[C@@H](Cc1ccccc1)C(=O)N[C@H](C(=O)N[C@@H](CC(=O)O)C(=O)N[C@@H](CCCCN)C(=O)N[C@@H](CC(=O)O)C(=O)N[C@@H](CCCCN)C(=O)N[C@@H](CC(=O)O)C(=O)N[C@@H](CC(N)=O)C(=O)N[C@H](C(=O)N[C@@H](C)C(=O)N1CCC[C@H]1C(=O)N[C@@H](CCCNC(=N)N)C(=O)N[C@@H](CO)C(=O)N[C@@H](CCCCN)C(=O)N[C@H](C(=O)N[C@@H](CO)C(=O)N1CCC[C@H]1C(=O)N[C@@H](CCC(N)=O)C(=O)NCC(=O)N[C@@H](Cc1ccc(O)cc1)C(N)=O)[C@@H](C)CC)C(C)C)[C@@H](C)O
B2: the “EC50 [nM], aequorin luminescence” value in assay [1] was 27 nM. The “EC50 [nM], cAMP assay” value in assay [2] was determined as 9.1 nM.
In the case of K(Palmitoyl)G[Dap]RFGTETVQKLAHQIYQFTDKDKDNVAPRSKISPQGY-NH2 (lactam 3-8; also: acetate salt) [[K^14(PAM), (Dpr^16, E^21)lac]ADM(14-52)], the “EC50 [nM], aequorin luminescence” value in assay [1] came to 22 nM. In assay [2], the “EC50 [nM], cAMP assay” value worked out at 2 nM.
Regarding GGDRFGTKTVQKLAHQIYQFTDKDKDNVAPRSKISPQGY-NH2 (lactam 3-8) [[G^14, (D^16, K^21)lac]ADM(14-52)], in assay [1], the “EC50 [nM], aequorin luminescence” value was found to be 15 nM. Besides, the “EC50 [nM], cAMP assay” value in assay [2] is 2.3 nM.
For GGDRFGT[Dap]TVQKLAHQIYQFTDKDKDNVAPRSKISPQGY-NH2 (lactam 3-8) [[G^14, (D^16, Dpr^21)lac]ADM(14-52)], the “EC50 [nM], aequorin luminescence” value in assay [1] was 32 nM. Further, the “EC50 [nM], cAMP assay” value in assay [2] was greater than 1000 nM.

B3: [G^14, (K^16, D^21)lac]ADM(14-52) (peptide)
peptide: GGKRFGTDTVQKLAHQIYQFTDKDKDNVAPRSKISPQGY-NH2
modifications: lactam 3-8; N-terminus assumed
SMILES: CC[C@H](C)[C@H](NC(=O)[C@H](CCC(N)=O)NC(=O)[C@H](Cc1c[nH]cn1)NC(=O)[C@H](C)NC(=O)[C@H](CC(C)C)NC(=O)[C@H](CCCCN)NC(=O)[C@H](CCC(N)=O)NC(=O)[C@@H](NC(=O)[C@@H](NC(=O)[C@@H]1CC(=O)NCCCC[C@H](NC(=O)CNC(=O)CN)C(=O)N[C@@H](CCCNC(=N)N)C(=O)N[C@@H](Cc2ccccc2)C(=O)NCC(=O)N[C@@H]([C@@H](C)O)C(=O)N1)[C@@H](C)O)C(C)C)C(=O)N[C@@H](Cc1ccc(O)cc1)C(=O)N[C@@H](CCC(N)=O)C(=O)N[C@@H](Cc1ccccc1)C(=O)N[C@H](C(=O)N[C@@H](CC(=O)O)C(=O)N[C@@H](CCCCN)C(=O)N[C@@H](CC(=O)O)C(=O)N[C@@H](CCCCN)C(=O)N[C@@H](CC(=O)O)C(=O)N[C@@H](CC(N)=O)C(=O)N[C@H](C(=O)N[C@@H](C)C(=O)N1CCC[C@H]1C(=O)N[C@@H](CCCNC(=N)N)C(=O)N[C@@H](CO)C(=O)N[C@@H](CCCCN)C(=O)N[C@H](C(=O)N[C@@H](CO)C(=O)N1CCC[C@H]1C(=O)N[C@@H](CCC(N)=O)C(=O)NCC(=O)N[C@@H](Cc1ccc(O)cc1)C(N)=O)[C@@H](C)CC)C(C)C)[C@@H](C)O
For the molecule B3, the “EC50 [nM], aequorin luminescence” value in assay [1] is greater than 1000 nM. Moreover, the “EC50 [nM], cAMP assay” value in assay [2] was greater than 1000 nM.

B4: [G^14, (U^16→U^21)]ADM(14-52) (peptide)
peptide: GGXRFGTXTVQKLAHQIYQFTDKDKDNVAPRSKISPQGY
modifications: positions 16 and 21 (residues 3 and 8 of the letters) together are 2,7-diaminosuberic acid (U^16→U^21, biscarba disulfide bond mimetic); X stands for the printed U; C-terminal amide
As for B4, the “EC50 [nM], aequorin luminescence” value in assay [1] was greater than 1000 nM. For the same molecule, the “EC50 [nM], cAMP assay” value in assay [2] was greater than 1000 nM.

B5: PAM[G^14, (C^16→U^21)]ADM(14-52) (peptide)
peptide: GGCRFGTXTVQKLAHQIYQFTDKDKDNVAPRSKISPQGY
modifications: palmitic acid (PAM) on the N-terminus (G14); positions 16 and 21 (residues 3 and 8 of the letters) together are cystathionine (C^16→U^21, thioether); X stands for the printed U at 21; C-terminal …
B5: the “EC50 [nM], aequorin luminescence” value in assay [1] amounted to 15 nM. In addition, the “EC50 [nM], cAMP assay” value in assay [2] turned out to be 16.9 nM.
On to GGERFGT[Orn]TVQKLAHQIYQFTDKDKDNVAPRSKISPQGY-NH2 (lactam 3-8) [[G^14, (E^16, Orn^21)lac]ADM(14-52)], for which the “EC50 [nM], aequorin luminescence” value in assay [1] was greater than 1000 nM. In addition, in assay [2], the “EC50 [nM], cAMP assay” value was 21 nM.
